These results are taken from publication PMC7253548.

This series concerns the target OsHsfB4d (Oryza sativa (rice; cv. Zhonghua 11?), UniProt Q10KX8 1-305). In words: EMSA; […], room temperature 20 min, […]; buffer, […]. Particulars: protein: recombinant; tags: 6xHis (pET-28a); chain copies: 3. (In general: A gel shift assay detects complexes by their altered migration in electrophoresis.)

Chain of OsHsfB4d (Q10KX8 whole entry): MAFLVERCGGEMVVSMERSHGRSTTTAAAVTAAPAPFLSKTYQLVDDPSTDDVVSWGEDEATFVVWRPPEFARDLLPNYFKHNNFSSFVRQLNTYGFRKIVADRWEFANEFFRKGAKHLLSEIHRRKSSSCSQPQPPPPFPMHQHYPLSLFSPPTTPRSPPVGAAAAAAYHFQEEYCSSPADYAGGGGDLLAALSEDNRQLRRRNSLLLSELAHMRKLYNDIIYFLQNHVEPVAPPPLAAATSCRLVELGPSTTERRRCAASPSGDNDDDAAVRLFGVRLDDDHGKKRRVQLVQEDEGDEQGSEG

B1: 18.0-HSE (perfect HSE only) (dsDNA)
DNA 1: CTTGGAATAAGCTTCTAGAAACTTCCAGTTTG
DNA 2: CAAACTGGAAGTTTCTAGAAGCTTATTCCAAG
Take B1: the binding result is reported as “binds”.

B2: 18.0-HSE-mutant (Mu) (dsDNA)
DNA 1: CTTGGAATAAGCTTCTACAAACAATCAGTTTG
DNA 2: CAAACTGATTGTTTGTAGAAGCTTATTCCAAG
With B2, the binding result was “no binding”.
